Measurements reported in US12012619B2, “Methods of use for an NADPH-regeneration system based on a monomeric isocitrate dehydrogenase” (INDUSTRY FOUNDATION OF CHONNAM NATIONAL UNIVERSITY, priority 2021, dated 2024).

How the values were obtained:
[1] = target: T1, AvIDH (Azotobacter vinelandii, UniProt P16100); assay: Enzyme activity inhibitory effect by α-ketoglutarate on AvIDH; assay type: biochemical; details: 20 mM α-ketoglutarate added; 5 nM AvIDH
T1 construct: His-tag (His6, pET24a-derived LEHHHHHH) (C); made in house; host or cells: E. coli BL21 (DE3)
T1 sequence (P16100 with tags, fused parts or gaps): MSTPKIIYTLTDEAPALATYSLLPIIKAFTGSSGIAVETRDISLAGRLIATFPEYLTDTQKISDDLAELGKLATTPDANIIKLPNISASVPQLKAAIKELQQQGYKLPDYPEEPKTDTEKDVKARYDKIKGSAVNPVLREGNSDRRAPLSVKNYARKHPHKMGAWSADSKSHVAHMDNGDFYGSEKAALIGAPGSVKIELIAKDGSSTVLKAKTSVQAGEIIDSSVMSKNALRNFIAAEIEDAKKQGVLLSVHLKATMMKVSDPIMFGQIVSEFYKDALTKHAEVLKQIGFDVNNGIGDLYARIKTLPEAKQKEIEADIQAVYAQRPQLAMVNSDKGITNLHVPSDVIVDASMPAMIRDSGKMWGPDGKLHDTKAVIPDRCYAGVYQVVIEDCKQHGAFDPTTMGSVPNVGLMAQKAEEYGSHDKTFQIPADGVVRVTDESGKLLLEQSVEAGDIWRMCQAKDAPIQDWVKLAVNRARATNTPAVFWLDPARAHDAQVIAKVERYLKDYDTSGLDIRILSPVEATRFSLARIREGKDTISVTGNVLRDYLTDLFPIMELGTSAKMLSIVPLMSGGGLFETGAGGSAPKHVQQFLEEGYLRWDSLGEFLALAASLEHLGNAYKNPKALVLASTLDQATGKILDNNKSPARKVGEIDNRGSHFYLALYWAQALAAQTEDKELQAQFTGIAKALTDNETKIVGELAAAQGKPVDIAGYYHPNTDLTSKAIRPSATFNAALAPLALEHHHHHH
Procedure: (§1) In order to confirm an enzyme activity inhibitory effect by α-ketoglutarate, which is an enzyme reaction product of the recombinant protein produced in the present invention, a reaction product, in which 5 nM of CgIDH and 5 nM AvIDH were each added to a reaction solution containing 100 mM potassium phosphate buffer (pH 7.4), 0.8 mM manganese sulfate, 40 mM DL-isocitric acid, and 0.5 mM NADP, was prepared. Thereafter, α-ketoglutarate was added for each concentration to proceed the reaction as described in Example 5, and the degree of increase of NADPH was measured. Here, an experimental group to which α-ketoglutarate was not added was used as a control group.

[2] = target: T2, CgIDH (Corynebacterium glutamicum, UniProt P50216); assay: Enzyme activity inhibitory effect by α-ketoglutarate on CgIDH; assay type: biochemical; details: 10 mM α-ketoglutarate added; 5 nM CgIDH
T2 construct: His-tag (His6, pET24a-derived LEHHHHHH) (C); made in house; host or cells: E. coli BL21 (DE3)
T2 sequence (P50216 with tags, fused parts or gaps): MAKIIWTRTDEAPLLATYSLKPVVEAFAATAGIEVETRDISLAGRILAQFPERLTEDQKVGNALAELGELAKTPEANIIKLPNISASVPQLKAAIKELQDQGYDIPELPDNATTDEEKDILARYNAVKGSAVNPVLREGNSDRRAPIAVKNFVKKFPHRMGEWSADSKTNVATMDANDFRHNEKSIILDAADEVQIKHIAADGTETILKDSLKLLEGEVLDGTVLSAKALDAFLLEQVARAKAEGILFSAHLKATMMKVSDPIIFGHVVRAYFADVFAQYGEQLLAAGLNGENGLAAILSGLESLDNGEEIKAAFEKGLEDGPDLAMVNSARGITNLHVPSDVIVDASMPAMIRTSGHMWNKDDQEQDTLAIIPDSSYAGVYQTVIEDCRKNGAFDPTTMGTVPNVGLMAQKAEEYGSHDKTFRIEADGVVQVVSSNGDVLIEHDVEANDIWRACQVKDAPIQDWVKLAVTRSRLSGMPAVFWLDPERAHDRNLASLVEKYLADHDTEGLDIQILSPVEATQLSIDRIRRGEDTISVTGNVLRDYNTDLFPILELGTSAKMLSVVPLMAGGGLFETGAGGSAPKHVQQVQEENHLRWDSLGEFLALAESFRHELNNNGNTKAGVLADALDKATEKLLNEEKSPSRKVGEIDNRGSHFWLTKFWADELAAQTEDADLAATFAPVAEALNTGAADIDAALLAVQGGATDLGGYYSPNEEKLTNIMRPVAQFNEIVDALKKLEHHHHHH
Procedure: as §1

[3] = Storage stability of recombinant protein; assay type: physicochemical; details: storage at 4° C. for 30 days; 5 nM enzyme
Procedure: In order to evaluate the stability of the recombinant protein produced in the present invention, after a certain period of time, each of the recombinant proteins stored at 4° C. was added to a reaction solution containing 100 mM potassium phosphate buffer (pH 7.4), 0.8 mM manganese sulfate, 40 mM DL-isocitric acid, and 0.5 mM NADP+ so that the final concentration was 5 nM, the reaction was proceeded as described in Example 5, and the degree of increase of NADPH was measured.

[4] = tested on: NADPH regeneration; assay: Specific activity analysis of recombinant IDH protein (NADPH increase measured by fluorescence); assay type: biochemical; details: 5 nM enzyme; for specific activity: 100 mM potassium phosphate buffer pH 7.4, 0.8 mM MnSO4, 0.8 mM DL-isocitric acid, 0.5 mM NADP+
Procedure: In order to confirm the degree of NADPH regeneration by the activity of the IDH recombinant protein, CgIDH and AvIDH were each added to a reaction solution containing 100 mM potassium phosphate buffer (pH 7.4), 0.8 mM manganese sulfate (MnSO4), 0.8 mM DL-isocitric acid, and 0.5 mM NADP+ so that the final concentrations were 5 nM, and the degree of increase of NADPH depending on the enzyme activity was measured with a spectrophotometer. When fluorescence was measured using a spectrophotometer, an excitation wavelength was set to 350 nm and an emission wavelength was set to 450 nm, and the measurement results are shown in FIG. 7.

[5] = target: cytochrome P450 BM3 (Priestia megaterium, UniProt P14779); assay: Coupling reaction with cytochrome P450 BM3, HPLC analysis of hydroxylation product of substrate; assay type: biochemical, Bacillus megaterium; details: coupling reaction 5 min; control = NADPH itself added; CgIDH 10 nM or AvIDH 5 nM, 500 nM P450 BM3, 2 mM omeprazole
Sequence of cytochrome P450 BM3 (P14779 whole entry): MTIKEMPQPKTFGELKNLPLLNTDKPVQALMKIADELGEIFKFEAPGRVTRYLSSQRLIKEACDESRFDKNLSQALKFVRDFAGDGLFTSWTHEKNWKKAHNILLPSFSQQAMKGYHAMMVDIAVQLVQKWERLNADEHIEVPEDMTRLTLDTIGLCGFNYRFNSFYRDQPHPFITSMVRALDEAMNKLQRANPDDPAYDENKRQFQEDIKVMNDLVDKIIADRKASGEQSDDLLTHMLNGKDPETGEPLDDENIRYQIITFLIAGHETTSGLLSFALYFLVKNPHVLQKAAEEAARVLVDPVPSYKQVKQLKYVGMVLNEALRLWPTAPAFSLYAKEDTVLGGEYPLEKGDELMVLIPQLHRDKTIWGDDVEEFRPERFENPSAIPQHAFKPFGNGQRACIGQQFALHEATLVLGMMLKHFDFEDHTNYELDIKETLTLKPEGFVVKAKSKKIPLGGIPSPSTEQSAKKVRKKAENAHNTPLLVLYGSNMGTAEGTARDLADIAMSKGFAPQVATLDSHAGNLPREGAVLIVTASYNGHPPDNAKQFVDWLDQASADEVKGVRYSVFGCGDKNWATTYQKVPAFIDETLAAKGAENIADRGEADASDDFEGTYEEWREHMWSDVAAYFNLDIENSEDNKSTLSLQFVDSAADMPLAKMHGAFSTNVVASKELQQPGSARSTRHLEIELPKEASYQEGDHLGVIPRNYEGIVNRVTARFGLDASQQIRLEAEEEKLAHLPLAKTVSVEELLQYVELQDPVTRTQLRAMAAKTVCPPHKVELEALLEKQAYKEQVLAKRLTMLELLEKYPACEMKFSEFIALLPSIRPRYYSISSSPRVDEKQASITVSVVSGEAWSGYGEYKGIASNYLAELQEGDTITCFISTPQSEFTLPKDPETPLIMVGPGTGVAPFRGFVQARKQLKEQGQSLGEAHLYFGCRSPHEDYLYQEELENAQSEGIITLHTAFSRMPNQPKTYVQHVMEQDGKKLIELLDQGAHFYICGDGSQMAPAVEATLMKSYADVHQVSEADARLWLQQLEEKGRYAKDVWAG
Procedure: In the above reaction, in order to confirm that the activity of cytochrome P450 BM3 is maintained by substantial NADPH regeneration, and the hydroxylation reaction of omeprazole, which is one of the substrates, occurs, to 1 mL of a reaction solution containing 100 mM potassium phosphate buffer (pH 7.4), 0.8 mM manganese sulfate, 40 mM DL-isocitric acid, 0.5 mM NADP, and 2 mM omeprazole, CgIDH and cytochrome P450 BM3 were added so that the final concentrations were 10 nM and 500 nM, respectively, and AvIDH and cytochrome P450 BM3 were added so that the final concentrations were 5 nM and 500 nM, respectively, to prepare a reaction product.
The reaction mixture was recovered by 90 uL each time, mixed with 90 uL of methanol to stop the reaction, and then HPLC analysis was performed. Specific HPLC performance conditions are as follows: • HPLC was performed using an Alliance HPLC system (Waters). • A SunFire 18C column was used as a column • The amount of sample loading was set to 20 uL. • As a HPLC mobile phase, 30% acetonitrile was flowed at a flow rate of 1 mL/min, and an eluate was measured with ultraviolet (UV) light at 302 nm. • Analysis was performed using an Empower 3 (Waters) program. […]

[6] = tested on: NADPH regeneration; assay: Kinetic constant analysis of purified recombinant protein; assay type: biochemical; details: wild-type CgIDH and AvIDH parameters as control groups
Procedure: The analysis of kinetic properties related to an enzyme activity of the recombinant protein, that is, a kinetic constant, was performed by the following procedure.
The analysis of kinetic activity for each of the recombinant proteins purified in Example 2 was performed based on the method described in Chen, R. & Yang, H. Biochemistry and Biophysics, 383(2):238-245 (2000); and Watanabe, S. Microbiology 151(4):1083-1094 (2005).
Here, a Km (uM) value representing the affinity of the enzyme to the substrate as a reaction constant used in enzyme kinetics, a Kcat(S-1) value, which means the metabolic turnover number of the enzyme, and a Kcat/Km (S-1, M-1) value representing a reaction efficiency of the enzyme, were determined.

With `O=C(O)CCC(=O)C(=O)O` [α-ketoglutarate] as the molecule, how does the “reduction of enzyme activity” value [1] read?
Its value is 30%.

What about the “reduction of enzyme activity” value [2] of the same molecule?
The value was 30%.

B1: AvIDH: recombinant monomeric isocitrate dehydrogenase from Azotobacter vinelandii, SEQ ID NO: 2, C-terminal histidine tag (protein)
chain: MSTPKIIYTLTDEAPALATYSLLPIIKAFTGSSGIAVETRDISLAGRLIATFPEYLTDTQKISDDLAELGKLATTPDANIIKLPNISASVPQLKAAIKELQQQGYKLPDYPEEPKTDTEKDVKARYDKIKGSAVNPVLREGNSDRRAPLSVKNYARKHPHKMGAWSADSKSHVAHMDNGDFYGSEKAALIGAPGSVKIELIAKDGSSTVLKAKTSVQAGEIIDSSVMSKNALRNFIAAEIEDAKKQGVLLSVHLKATMMKVSDPIMFGQIVSEFYKDALTKHAEVLKQIGFDVNNGIGDLYARIKTLPEAKQKEIEADIQAVYAQRPQLAMVNSDKGITNLHVPSDVIVDASMPAMIRDSGKMWGPDGKLHDTKAVIPDRCYAGVYQVVIEDCKQHGAFDPTTMGSVPNVGLMAQKAEEYGSHDKTFQIPADGVVRVTDESGKLLLEQSVEAGDIWRMCQAKDAPIQDWVKLAVNRARATNTPAVFWLDPARAHDAQVIAKVERYLKDYDTSGLDIRILSPVEATRFSLARIREGKDTISVTGNVLRDYLTDLFPIMELGTSAKMLSIVPLMSGGGLFETGAGGSAPKHVQQFLEEGYLRWDSLGEFLALAASLEHLGNAYKNPKALVLASTLDQATGKILDNNKSPARKVGEIDNRGSHFYLALYWAQALAAQTEDKELQAQFTGIAKALTDNETKIVGELAAAQGKPVDIAGYYHPNTDLTSKAIRPSATFNAALAPLALEHHHHHH
modifications: C-terminal His tag; AvIDH protein
With B1 as the molecule, how does the “enzyme activity after storage” value [3] read?
Its value is “did not decrease”.

And the specific activity [4]?
The specific activity was 28 U/mg.

What about the “elution amount of 5′-hydroxyomeprazole based on the elution amount produced in the control group” value [5] of the same molecule?
Its value is 114%.

And the “Kcat compared with the wild-types” value [6]?
The value was “slight decrease”.

B2: CgIDH: recombinant monomeric isocitrate dehydrogenase from Corynebacterium glutamicum, SEQ ID NO: 1, C-terminal histidine tag (protein)
chain: MAKIIWTRTDEAPLLATYSLKPVVEAFAATAGIEVETRDISLAGRILAQFPERLTEDQKVGNALAELGELAKTPEANIIKLPNISASVPQLKAAIKELQDQGYDIPELPDNATTDEEKDILARYNAVKGSAVNPVLREGNSDRRAPIAVKNFVKKFPHRMGEWSADSKTNVATMDANDFRHNEKSIILDAADEVQIKHIAADGTETILKDSLKLLEGEVLDGTVLSAKALDAFLLEQVARAKAEGILFSAHLKATMMKVSDPIIFGHVVRAYFADVFAQYGEQLLAAGLNGENGLAAILSGLESLDNGEEIKAAFEKGLEDGPDLAMVNSARGITNLHVPSDVIVDASMPAMIRTSGHMWNKDDQEQDTLAIIPDSSYAGVYQTVIEDCRKNGAFDPTTMGTVPNVGLMAQKAEEYGSHDKTFRIEADGVVQVVSSNGDVLIEHDVEANDIWRACQVKDAPIQDWVKLAVTRSRLSGMPAVFWLDPERAHDRNLASLVEKYLADHDTEGLDIQILSPVEATQLSIDRIRRGEDTISVTGNVLRDYNTDLFPILELGTSAKMLSVVPLMAGGGLFETGAGGSAPKHVQQVQEENHLRWDSLGEFLALAESFRHELNNNGNTKAGVLADALDKATEKLLNEEKSPSRKVGEIDNRGSHFWLTKFWADELAAQTEDADLAATFAPVAEALNTGAADIDAALLAVQGGATDLGGYYSPNEEKLTNIMRPVAQFNEIVDALKKLEHHHHHH
modifications: C-terminal His tag; CgIDH protein
Which “enzyme activity after storage” value [3] does the source give for B2 here?
The value was “did not decrease”.

What about the “enzyme activity (enzyme reaction slope) compared with AvIDH at the same amount of protein” value [4] of the same molecule?
The value was “higher enzyme activity”.

What about the specific activity [4] of the same molecule?
The specific activity was 57 U/mg.

What about the “elution amount of 5′-hydroxyomeprazole based on the elution amount produced in the control group” value [5] of the same molecule?
Its value is 126%.

And the “Kcat compared with the wild-types” value [6]?
Its value is “slight decrease”.
